This note sets out measurements from patent US9273304B2, “Inactivation method” (Thermo Fisher Scientific Baltics UAB, priority 2006, dated 2016).

A value given as a limit tells only on which side of the number the result lay.

Assay type in all cases: biochemical
The target of data set [1] is T1, Taq DNA polymerase (Thermus aquaticus, UniProt P19821). Kind of data set: Activity in PCR measured by incorporation of [3H]-dTTP into the PCR product (pH and Mg2+ effect). The method, then:
Activity of Taq DNA polymerase modified with N-ethoxycarbonyl-N-2,3-dimethylmaleinimide at different pH during was measured by incorporation [^3H]-dTTP nucleotide into the PCR product.
Sets of PCR were carried out at the following pH values determined at 25° C.: 8.2, 8.3, 8.4, 8.5, 8.6, 8.7, and 8.8. The reactions were preformed in the GeneAmp® PCR System 9700 (Applied Biosystems) using 1.25 units of the modified enzymes in aliquots ([…] of the reaction buffer of the following composition: 20 mM Tris-HCl (pH values indicated above), 20 mM KCl, 5 mM (NH4)SO4, 1.5 mM MgCl2 supplemented with 0.2 mM dNTP, 0.8 MBq/ml [^3H]-dTTP, 0.5 […] of both PCR primers ([SEQ ID NO: 1] 5′-[…]-3′ and [SEQ ID NO: 2] 5′-[…]-3′), and human DNA (10 ng/50 μl).
Thermal cycling profile was the following: 95° C.—4 min; (95° C.—0.5 min, 50° C.—0.5 min, 72° C.—1 min)—30 cycles; 72° C.—7 min.
Activity of the modified DNA polymerase in PCR was determined as described in the Example 8. A set of PCR reactions was carried out in the reaction buffer (see Example 7) supplemented with the following Mg^2+ concentrations: 1 mM, 1.5 mM, 2 mM, 2.5 mM, 3 mM, 3.5 mM, 4 mM, 5 mM, 6 mM, 7 mM, and 8 mM.

Data set [2] deals with T1, Taq DNA polymerase. Kind of data set: 5′-3′ exonuclease activity: cleavage of 5′-labelled oligonucleotide duplexes at 37° C. The note with it: 4 hours, with or without dNTPs, FIG. 9, part B. The method, then:
The exonuclease activity was determined using the following labeled complementary oligonucleotides: [SEQ ID NO: 3] 5′-[…]-3′ and [SEQ ID NO: 4] 5′-[…]-3′. Equal amounts (10 units) of the unmodified enzyme and the modified enzyme were incubated with the oligonucleotide duplexes for 4 hours at 37° C. in 10 μl of reaction buffer. Activity of the unmodified Taq DNA polymerase was tested in the following buffer: 75 mM Tris-HCl (pH 8.8 at 25° C.), 20 mM (NH4)SO4, 0.01% Tween20, and 2 mM MgCl2, while the buffer composition to test the modified Taq DNA polymerase was the following: 20 mM Tris-HCl (pH 8.3 at 25° C.), 20 mM KCl, 5 mM (NH4)SO4, and 2 mM MgCl2. Both reaction mixtures were tested either in the presence or in the absence of dNTPs.
Reactions were terminated by addition of 5 μl of a “stop” solution (95% (v/v) formamide and 0.01% bromophenol blue). After heating at 95° C. for 2 minutes, the samples were cooled in ice, and then they were loaded onto 15% denaturing acrylamide gel (29:1 acrylamide/bisacrylamide). Electrophoresis was performed in 89 mM Tris-borate (pH8.3 at 37° C.) supplemented with 2 mM EDTA for one hour at ˜50 V/cm. After electrophoresis, the gels were fixed in 10% acetic acid and dried. The gels were analyzed using Cyclone Storage Phosphor System and OptiQuant™ Image Analysis Software.

Data set [3] relates to CFTR gene or insulin gene, human genome DNA as template. Kind of data set: PCR specificity and efficiency, mixtures set up at room temperature (CFTR and insulin gene fragments). The method, then:
Sets of PCR reactions were carried out in the Mastercycle (Eppendorf). The reactions performed using 2 units of both the unmodified and the modified enzymes. Composition of the buffer used in the experiments with the modified Taq DNA polymerase was described in the Example 7. The unmodified Taq DNA was tested in the buffer of the following compositions: 75 mM Tris-HCl (pH 8.8 at 25° C.), 20 mM (NH4)SO4, 0.01% Tween20. Both buffers were supplemented with 2 mM MgCl2, 0.2 mM dNTP, 0.5 μm of each PCR primer and human DNA (100 ng/50 μl). For amplification of 950 by DNA fragment of the CFTR gene, the same set of PCR primers was used as described in the Example 8. A 400 bp fragment of the insulin gene was amplified with the following set of PCR primers: […]
The components of PCR were mixed at room temperature and the reactions were performed using the following cycling profiles: • 1. For the 950 bp amplicon: 95° C.—5 min; (95° C.—[…], 50° C.—0.5 min, 72° C.—1 min)—40 cycles; 72° C.—7 min. • 2. For the 400 bp amplicon: 95° C.—5 min; (95° C.—0.5 min, 65° C.—0.5 min, 72° C.—1 min)—40 cycles; 72° C.—7 min.
After completion of PCR, the samples were mixed with aliquots (10 μl) of the 6× MassRuller™ Loading Dye (Fermentas), and the samples were analyzed by gel electrophoresis in 1.7% agarose. The Gene Ruler™ 100 bp DNA Ladder Plus (Fermentas) was used for evaluation of the amplicon size. Electrophoresis was performed in the TBE buffer (89 mM Tris, 89 mM H3BO3, and 1 mM EDTA) at 5 V/cm for 75 min. After completion of electrophoresis, gels were stained with ethidium bromide (0.5 μg/ml). Then, gels were destained in MiliQ-quality water for 20 minutes. DNA bands were visualized under UV.

T1 sequence (P19821 whole entry): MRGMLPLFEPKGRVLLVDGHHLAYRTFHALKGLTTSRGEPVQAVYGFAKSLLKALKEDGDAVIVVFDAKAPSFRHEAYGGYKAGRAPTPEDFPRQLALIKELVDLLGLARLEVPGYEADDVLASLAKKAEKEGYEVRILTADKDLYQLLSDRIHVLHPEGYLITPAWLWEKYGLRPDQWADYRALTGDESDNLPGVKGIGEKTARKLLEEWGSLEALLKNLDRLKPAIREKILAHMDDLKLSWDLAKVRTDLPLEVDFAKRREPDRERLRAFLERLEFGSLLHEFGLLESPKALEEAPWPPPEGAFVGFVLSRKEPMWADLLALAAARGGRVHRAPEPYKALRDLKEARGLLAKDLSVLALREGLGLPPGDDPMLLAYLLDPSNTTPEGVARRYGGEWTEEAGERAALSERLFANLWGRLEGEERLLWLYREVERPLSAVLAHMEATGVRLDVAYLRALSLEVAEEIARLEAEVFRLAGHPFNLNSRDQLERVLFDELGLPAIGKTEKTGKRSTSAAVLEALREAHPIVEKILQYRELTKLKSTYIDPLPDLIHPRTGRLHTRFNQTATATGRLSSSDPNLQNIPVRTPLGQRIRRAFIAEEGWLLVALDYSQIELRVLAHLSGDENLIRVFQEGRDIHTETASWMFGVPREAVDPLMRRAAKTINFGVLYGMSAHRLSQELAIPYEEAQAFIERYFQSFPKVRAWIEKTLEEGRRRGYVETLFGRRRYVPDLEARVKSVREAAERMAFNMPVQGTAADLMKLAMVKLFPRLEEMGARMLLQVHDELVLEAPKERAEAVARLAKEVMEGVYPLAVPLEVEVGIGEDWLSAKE

Regarding “Taq DNA polymerase modified with N-etoxycarbonyl-2,3-dimethylmaleinimide: Recombinant Taq DNA polymerase reversibly inactivated by reaction with N-ethoxycarbonyl-2,3-dimethylmaleinimide in aqueous solution (preferred molar ratio 1/110)”, in the data set with Taq DNA polymerase [1] (1.5-5.0 mM Mg2+), the “activity within the 1.5-5.0 mM range of Mg2+ concentrations” value is on record as not below 70%. The “Activity at 70° C. (%)” value was approximately 0% with Taq DNA polymerase [1] ([Mg2+] 1 mM, incorporation of [3H]-dTTP into the PCR product); approximately 70% with Taq DNA polymerase [1] ([Mg2+] 1.5 mM); approximately 70% in the data set with Taq DNA polymerase [1] ([Mg2+] 2.0 mM); approximately 100% in the data set with Taq DNA polymerase [1] ([Mg2+] 2.5 mM); approximately 100% with Taq DNA polymerase [1] ([Mg2+] 3.0 mM); approximately 100% with Taq DNA polymerase [1] ([Mg2+] 3.5 mM). Also, the “Activity at 70° C. (%)” value with Taq DNA polymerase [1] ([Mg2+] 4.0 mM) is on record as approximately 90%; with Taq DNA polymerase [1] ([Mg2+] 5.0 mM), approximately 70%; with Taq DNA polymerase [1] ([Mg2+] 6.0 mM) it was approximately 30%; with Taq DNA polymerase [1] ([Mg2+] 7.0 mM), approximately 20%; with Taq DNA polymerase [1] ([Mg2+] 8.0 mM) it was approximately 10%; in the data set with Taq DNA polymerase [1] (ambient pH 8.2, incorporation of [3H]-dTTP into the PCR product) it was approximately 30%. In addition, the “Activity at 70° C. (%)” value in the data set with Taq DNA polymerase [1] (ambient pH 8.3) was approximately 80%; with Taq DNA polymerase [1] (ambient pH 8.4) it was approximately 100%; in the data set with Taq DNA polymerase [1] (ambient pH 8.5), approximately 100%; with Taq DNA polymerase [1] (ambient pH 8.6), approximately 100%; in the data set with Taq DNA polymerase [1] (ambient pH 8.7), approximately 100%; in the data set with Taq DNA polymerase [1] (ambient pH 8.8), approximately 60%. Moreover, the “activity within the pH 8.3-8.7 range” value with Taq DNA polymerase [1] (pH 8.3-8.7) is on record as not below 80%. Also, the “5′-3′ exonuclease activity” value in the data set with Taq DNA polymerase [2] was “practically devoid of exonuclease activity”. Besides, the “yield of unspecific PCR byproducts versus unmodified DNA polymerase” value in data set [3] (CFTR and insulin gene fragments, PCR set up at room temperature, FIG. 10) is “lesser yield”. The “yield of the byproducts caused by the primer dimerization versus unmodified DNA polymerase” value in data set [3] (insulin gene 400 bp fragment) is on record as “lower”. In data set [3] (insulin gene 400 bp fragment), the “yield of the insulin amplicon versus unmodified DNA polymerase” value is listed as “higher yield”.
